From doi:10.1101/2024.05.08.593122 (bioRxiv, 2024)

Experiments:
[1] = molecular target: T1, N-terminally FLAG tagged Tgl2 (S. cerevisiae, UniProt P54857 1-326); assay: native gel or EMSA
T1 sequence (looked up): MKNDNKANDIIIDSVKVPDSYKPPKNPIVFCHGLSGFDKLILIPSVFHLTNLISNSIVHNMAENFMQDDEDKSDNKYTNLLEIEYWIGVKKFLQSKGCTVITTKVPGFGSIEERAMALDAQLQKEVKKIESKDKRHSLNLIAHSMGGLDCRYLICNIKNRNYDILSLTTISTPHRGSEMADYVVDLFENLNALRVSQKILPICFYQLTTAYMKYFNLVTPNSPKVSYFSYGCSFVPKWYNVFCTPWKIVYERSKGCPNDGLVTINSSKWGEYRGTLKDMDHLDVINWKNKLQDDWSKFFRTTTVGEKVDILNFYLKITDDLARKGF

[2] = molecular target: the molecule itself; assay: non-reducing SDS-PAGE with immunodecoration

stoichiometry N [1]: ≥ 2
B1: N-terminally HA tagged Tgl2 (natural protein, S. cerevisiae, UniProt P54857 1-326, looked up)
chain: MKNDNKANDIIIDSVKVPDSYKPPKNPIVFCHGLSGFDKLILIPSVFHLTNLISNSIVHNMAENFMQDDEDKSDNKYTNLLEIEYWIGVKKFLQSKGCTVITTKVPGFGSIEERAMALDAQLQKEVKKIESKDKRHSLNLIAHSMGGLDCRYLICNIKNRNYDILSLTTISTPHRGSEMADYVVDLFENLNALRVSQKILPICFYQLTTAYMKYFNLVTPNSPKVSYFSYGCSFVPKWYNVFCTPWKIVYERSKGCPNDGLVTINSSKWGEYRGTLKDMDHLDVINWKNKLQDDWSKFFRTTTVGEKVDILNFYLKITDDLARKGF
stoichiometry N [2]: 2
